Measurements as given in article PMC9771472, “Tenuous transcriptional threshold of human sex determination. II. SRY exploits water-mediated clamp at the edge of ambiguity”.

Legend:
SRY HMG box Y72A = SRY HMG box Y72A (human, UniProt Q05066 57-141, Y127A); test: CD; 25 uM each; least shifted toward A-DNA; FRET: 10 mM potassium phosphate, 10 mM Tris-HCl, 140 mM KCl, pH 8.0, 15 and 37 C, 25 nM DNA (Kd); sf-FRET 1 uM complex + 20 uM unlabelled DNA at 10, 15, 25, 37; settings: protein: recombinant; blunt
Chain of SRY HMG box Y72A (Q05066 57-141 Y127A): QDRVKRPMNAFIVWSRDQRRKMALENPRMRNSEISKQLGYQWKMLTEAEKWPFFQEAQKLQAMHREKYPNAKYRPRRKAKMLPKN

SRY HMG box Y72W [1] = target: T1, SRY HMG box Y72W (human, UniProt Q05066 57-141, Y127W); test: CD; 25 uM each; A-form features in bound DNA; FRET: 10 mM potassium phosphate, 10 mM Tris-HCl, 140 mM KCl, pH 8.0, 15 and 37 C, 25 nM DNA (Kd); sf-FRET 1 uM complex + 20 uM unlabelled DNA at 10, 15, 25, 37; settings: protein: recombinant; blunt
T1 sequence (Q05066 57-141 Y127W): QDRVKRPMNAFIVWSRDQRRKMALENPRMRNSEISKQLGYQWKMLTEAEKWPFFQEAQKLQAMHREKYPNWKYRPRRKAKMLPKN

SRY HMG box Y72F [2] = target: T2, SRY HMG box Y72F (human, UniProt Q05066 57-141, Y127F); test: NMR (1H imino, NOESY, 15N HSQC); CD; 1:1, 25 C, 10 mM K-phosphate pH 7.4, 50 mM KCl (NMR); FRET: 10 mM potassium phosphate, 10 mM Tris-HCl, 140 mM KCl, pH 8.0, 15 and 37 C, 25 nM DNA (Kd); sf-FRET 1 uM complex + 20 uM unlabelled DNA at 10, 15, 25, 37; settings: protein: recombinant; blunt
T2 sequence (Q05066 57-141 Y127F): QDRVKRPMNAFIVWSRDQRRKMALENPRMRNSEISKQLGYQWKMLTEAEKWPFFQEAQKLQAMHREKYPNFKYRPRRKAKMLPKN

SRY HMG box WT [3] = target: T3, SRY HMG box WT (human, UniProt Q05066 57-141); test: as above; settings: protein: recombinant; blunt
T3 sequence (Q05066 57-141): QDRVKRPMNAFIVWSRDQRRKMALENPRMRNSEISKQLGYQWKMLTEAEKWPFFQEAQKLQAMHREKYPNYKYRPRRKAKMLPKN

SRY HMG box WT [4] = target: T3, SRY HMG box WT; test: steady-state FRET; reference; Kd values in Table S7 not in material; FRET: 10 mM potassium phosphate, 10 mM Tris-HCl, 140 mM KCl, pH 8.0, 15 and 37 C, 25 nM DNA (Kd); sf-FRET 1 uM complex + 20 uM unlabelled DNA at 10, 15, 25, 37; settings: protein: recombinant; label: 5'-fluorescein (upper strand); 5'-TAMRA (lower strand), hexanyl linkers; blunt
SRY HMG box Y72W [5] = target: T1, SRY HMG box Y72W; test: steady-state FRET; stopped-flow FRET; high affinity retained; slight koff increase; FRET: 10 mM potassium phosphate, 10 mM Tris-HCl, 140 mM KCl, pH 8.0, 15 and 37 C, 25 nM DNA (Kd); sf-FRET 1 uM complex + 20 uM unlabelled DNA at 10, 15, 25, 37; settings: protein: recombinant; label: 5'-fluorescein (upper strand); 5'-TAMRA (lower strand), hexanyl linkers; blunt
SRY HMG box Y72C = SRY HMG box Y72C (human, UniProt Q05066 57-141, Y127C); test: stopped-flow FRET; near-native affinity (Kd from companion paper); koff 26(+/-1.3)-fold faster than WT at 10 C; FRET: 10 mM potassium phosphate, 10 mM Tris-HCl, 140 mM KCl, pH 8.0, 15 and 37 C, 25 nM DNA (Kd); sf-FRET 1 uM complex + 20 uM unlabelled DNA at 10, 15, 25, 37; settings: protein: recombinant; label: 5'-fluorescein (upper strand); 5'-TAMRA (lower strand), hexanyl linkers; blunt
Chain of SRY HMG box Y72C (Q05066 57-141 Y127C): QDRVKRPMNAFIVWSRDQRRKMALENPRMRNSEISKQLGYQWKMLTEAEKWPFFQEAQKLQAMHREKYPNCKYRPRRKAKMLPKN

SRY HMG box Y72H = SRY HMG box Y72H (human, UniProt Q05066 57-141, Y127H); test: stopped-flow FRET; near-native affinity (Kd from companion paper); koff 14(+/-0.38)-fold faster than WT at 10 C; FRET: 10 mM potassium phosphate, 10 mM Tris-HCl, 140 mM KCl, pH 8.0, 15 and 37 C, 25 nM DNA (Kd); sf-FRET 1 uM complex + 20 uM unlabelled DNA at 10, 15, 25, 37; settings: protein: recombinant; label: 5'-fluorescein (upper strand); 5'-TAMRA (lower strand), hexanyl linkers; blunt
Chain of SRY HMG box Y72H (Q05066 57-141 Y127H): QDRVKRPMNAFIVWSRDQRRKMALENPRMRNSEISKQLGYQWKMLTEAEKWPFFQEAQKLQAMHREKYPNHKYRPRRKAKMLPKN

SRY HMG box Y72F [6] = target: T2, SRY HMG box Y72F; test: steady-state FRET; stopped-flow FRET; native-like affinity; koff about 4-fold faster than WT at 37 C, compensated by kon; FRET: 10 mM potassium phosphate, 10 mM Tris-HCl, 140 mM KCl, pH 8.0, 15 and 37 C, 25 nM DNA (Kd); sf-FRET 1 uM complex + 20 uM unlabelled DNA at 10, 15, 25, 37; settings: protein: recombinant; label: 5'-fluorescein (upper strand); 5'-TAMRA (lower strand), hexanyl linkers; blunt

Measured: binding result

B1: 15-bp SRY site, unlabelled (dsDNA)
DNA 1: TCGGTGATTGTTCAG
DNA 2: CTGAACAATCACCGA
binds: SRY HMG box Y72A | SRY HMG box Y72W [1] | SRY HMG box Y72F [2] | SRY HMG box WT [3]

B2: 15-bp SRY site, FRET-labelled (dsDNA)
DNA 1: TCGGTGATTGTTCAG
DNA 2: CTGAACAATCACCGA
binds: SRY HMG box WT [4] | SRY HMG box Y72W [5] | SRY HMG box Y72C | SRY HMG box Y72H | SRY HMG box Y72F [6]
